Experimental findings from paper PMC5283830, “Suppression of C9orf72 RNA repeat-induced neurotoxicity by the ALS-associated RNA-binding protein Zfp106” are described below.

The target in series [1] is T1, Zfp106 (Mus musculus, UniProt O88466 1-1888). The series can be described thus: competition; 30x molar excess vs r(GGGGCC)4 probe; EMSA: 40 mM Tris-Cl pH 8.0, 30 mM KCl, 1 mM MgCl2, 0.01% NP-40, 1 mM DTT, 5% glycerol, 10 ug/ml BSA, 30 min room temperature; pull-down: nuclear extract in 50 mM Tris pH 7.4, 150 mM NaCl, 1 mM EDTA, 0.5% NP-40, 4 h at 4 C. Conditions: protein: recombinant, tags: N-terminal 3xFLAG-2xSTREP. A general note: A gel shift assay detects complexes by their altered migration in electrophoresis.

The target of series [2] is T1, Zfp106. The series can be described thus: EMSA; 1 mM Mg2+; competed by 30x unlabeled self; EMSA: 40 mM Tris-Cl pH 8.0, 30 mM KCl, 1 mM MgCl2, 0.01% NP-40, 1 mM DTT, 5% glycerol, 10 ug/ml BSA, 30 min room temperature; pull-down: nuclear extract in 50 mM Tris pH 7.4, 150 mM NaCl, 1 mM EDTA, 0.5% NP-40, 4 h at 4 C. Conditions: protein: recombinant; tags: N-terminal 3xFLAG-2xSTREP; label: 5' 32P (probe).

The target of series [3] is T2, MBNL1 (Mus musculus, UniProt G3X9Q0 1-381).
T2 sequence: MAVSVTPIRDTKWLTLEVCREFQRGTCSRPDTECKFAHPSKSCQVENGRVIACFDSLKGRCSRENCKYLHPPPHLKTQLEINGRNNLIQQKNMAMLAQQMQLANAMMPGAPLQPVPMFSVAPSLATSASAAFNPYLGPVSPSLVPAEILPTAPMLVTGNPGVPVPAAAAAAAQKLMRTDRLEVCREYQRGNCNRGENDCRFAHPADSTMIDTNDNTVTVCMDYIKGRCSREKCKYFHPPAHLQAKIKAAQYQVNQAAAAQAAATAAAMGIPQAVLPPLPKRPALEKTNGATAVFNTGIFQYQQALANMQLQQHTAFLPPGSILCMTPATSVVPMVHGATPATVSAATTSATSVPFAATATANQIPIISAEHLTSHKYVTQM
The series can be described thus: EMSA; 1 mM Mg2+; EMSA: 40 mM Tris-Cl pH 8.0, 30 mM KCl, 1 mM MgCl2, 0.01% NP-40, 1 mM DTT, 5% glycerol, 10 ug/ml BSA, 30 min room temperature; pull-down: nuclear extract in 50 mM Tris pH 7.4, 150 mM NaCl, 1 mM EDTA, 0.5% NP-40, 4 h at 4 C. The settings on record: protein: recombinant; tags: N-terminal 3xFLAG-2xSTREP; label: 5' 32P (probe).

Series [4] addresses T2, MBNL1. The series can be described thus: EMSA; 1 mM Mg2+; competed by 30x unlabeled self; EMSA: 40 mM Tris-Cl pH 8.0, 30 mM KCl, 1 mM MgCl2, 0.01% NP-40, 1 mM DTT, 5% glycerol, 10 ug/ml BSA, 30 min room temperature; pull-down: nuclear extract in 50 mM Tris pH 7.4, 150 mM NaCl, 1 mM EDTA, 0.5% NP-40, 4 h at 4 C. The settings on record: protein: recombinant; tags: N-terminal 3xFLAG-2xSTREP; label: 5' 32P (probe).

T1 sequence (O88466 whole entry): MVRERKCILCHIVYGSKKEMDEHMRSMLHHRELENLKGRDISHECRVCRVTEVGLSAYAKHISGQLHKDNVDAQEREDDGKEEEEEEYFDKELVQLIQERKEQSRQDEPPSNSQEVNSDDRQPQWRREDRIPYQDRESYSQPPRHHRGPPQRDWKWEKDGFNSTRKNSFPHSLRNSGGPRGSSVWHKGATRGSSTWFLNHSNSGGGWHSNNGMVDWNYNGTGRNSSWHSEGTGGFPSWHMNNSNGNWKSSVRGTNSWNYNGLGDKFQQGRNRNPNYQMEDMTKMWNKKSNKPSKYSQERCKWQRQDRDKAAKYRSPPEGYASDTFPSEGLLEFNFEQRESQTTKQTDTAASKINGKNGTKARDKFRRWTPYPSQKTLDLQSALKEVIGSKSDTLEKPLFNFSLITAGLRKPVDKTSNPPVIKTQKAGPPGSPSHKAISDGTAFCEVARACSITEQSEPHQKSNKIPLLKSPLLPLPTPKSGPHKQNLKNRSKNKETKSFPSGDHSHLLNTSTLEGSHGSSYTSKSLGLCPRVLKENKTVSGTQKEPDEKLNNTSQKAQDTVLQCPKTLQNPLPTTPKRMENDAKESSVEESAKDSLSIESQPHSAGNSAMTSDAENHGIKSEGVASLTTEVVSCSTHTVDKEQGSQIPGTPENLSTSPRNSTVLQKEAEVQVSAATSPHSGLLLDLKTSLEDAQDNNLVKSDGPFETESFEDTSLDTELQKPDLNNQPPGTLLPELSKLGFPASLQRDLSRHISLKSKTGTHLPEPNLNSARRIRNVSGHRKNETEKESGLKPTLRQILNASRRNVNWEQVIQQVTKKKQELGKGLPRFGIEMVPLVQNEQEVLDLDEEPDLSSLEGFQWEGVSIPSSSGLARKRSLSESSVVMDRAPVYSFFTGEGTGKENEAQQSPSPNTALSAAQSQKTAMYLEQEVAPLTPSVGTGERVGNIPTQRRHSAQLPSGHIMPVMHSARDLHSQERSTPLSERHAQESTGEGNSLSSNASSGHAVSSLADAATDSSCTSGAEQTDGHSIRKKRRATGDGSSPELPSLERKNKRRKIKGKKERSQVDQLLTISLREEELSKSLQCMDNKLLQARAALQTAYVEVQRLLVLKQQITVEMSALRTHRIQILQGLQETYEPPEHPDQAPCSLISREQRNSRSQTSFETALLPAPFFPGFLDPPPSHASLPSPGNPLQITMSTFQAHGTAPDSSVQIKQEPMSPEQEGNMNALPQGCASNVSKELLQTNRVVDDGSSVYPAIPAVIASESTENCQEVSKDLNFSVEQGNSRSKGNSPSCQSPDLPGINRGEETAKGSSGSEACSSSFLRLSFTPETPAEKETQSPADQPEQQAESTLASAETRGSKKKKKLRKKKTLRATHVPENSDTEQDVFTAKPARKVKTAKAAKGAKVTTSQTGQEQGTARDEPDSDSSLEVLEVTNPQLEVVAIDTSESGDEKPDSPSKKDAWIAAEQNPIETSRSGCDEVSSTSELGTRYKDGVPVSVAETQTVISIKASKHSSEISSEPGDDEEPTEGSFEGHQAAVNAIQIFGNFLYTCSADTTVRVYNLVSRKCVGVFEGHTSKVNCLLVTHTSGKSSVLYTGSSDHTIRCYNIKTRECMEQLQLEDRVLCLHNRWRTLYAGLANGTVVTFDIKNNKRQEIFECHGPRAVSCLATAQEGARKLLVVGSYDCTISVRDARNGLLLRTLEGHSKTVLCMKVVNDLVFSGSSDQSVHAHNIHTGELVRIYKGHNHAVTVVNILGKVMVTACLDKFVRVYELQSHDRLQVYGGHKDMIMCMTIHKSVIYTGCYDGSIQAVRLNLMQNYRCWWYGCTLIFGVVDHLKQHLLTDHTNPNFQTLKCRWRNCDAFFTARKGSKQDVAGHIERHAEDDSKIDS

Consider AAAACCAAAACCAAAACCAAAACC (ssRNA) [r(AAAACC)4], for which the binding result with Zfp106 [1] is “no binding”.
Turning to GGGGCCGGGGCCGGGGCCGGGGCC (ssRNA) [r(GGGGCC)4], the binding result in the series with Zfp106 [2] is listed as “binds”; with MBNL1 [3], “no binding”.
Take CUGCUGCUGCUGCUGCUGCUGCUG (ssRNA) [r(CUG)8]: the binding result in the series with Zfp106 [1] (label: 5' 32P (probe)) is on record as “no binding”; with MBNL1 [4] it was “binds”.
With GAGGCCGGGACCGAGACCGAGGCC (ssRNA) [mutated r(GGGGCC)4 (mut)], the binding result with Zfp106 [1] was “no binding”.
